Experimental data published in article PMC4960544, “Production of full-length soluble Plasmodium falciparum RH5 protein vaccine using a Drosophila melanogaster Schneider 2 stable cell line system” (Scientific Reports, 2016).

How the values were obtained:
[1] = target: basigin (Homo sapiens) (UniProt P35613); experiment: SPR; details: cited from earlier work
[2] = rabbit serum anti-PfRH5 v2.0 IgG ELISA; details: glycan lost; control: v5.0 (native sequons, glycosylated)
[3] = single-cycle GIA with purified rabbit total IgG; details: glycan lost; control: v5.0 (native sequons, glycosylated)
[4] = GIA versus anti-PfRH5 IgG concentration, fitted curves; details: glycan lost; control: v5.0 (native sequons, glycosylated)

Chain of basigin (Homo sapiens) (P35613 22-325): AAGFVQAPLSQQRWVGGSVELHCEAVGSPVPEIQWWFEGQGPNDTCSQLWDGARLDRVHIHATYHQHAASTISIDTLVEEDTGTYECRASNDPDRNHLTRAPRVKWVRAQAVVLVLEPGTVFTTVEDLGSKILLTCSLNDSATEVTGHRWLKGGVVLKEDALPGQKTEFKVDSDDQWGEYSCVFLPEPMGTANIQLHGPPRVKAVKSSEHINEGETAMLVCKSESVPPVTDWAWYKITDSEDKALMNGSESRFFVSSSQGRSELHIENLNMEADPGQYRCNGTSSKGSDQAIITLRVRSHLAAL

| Molecule | Kd [1] [nM] | other: immunogenicity, other: median PfRH5-specific IgG [2] | other: immunogenicity (growth inhibition by induced IgG), EC50 [3] | other: immunogenicity (antibody quality, GIA per antigen-specific IgG), EC50 [4] |
| --- | --- | --- | --- | --- |
| PfRH5 (from UniProt Q8IFM5) | 1500 | – | – | – |
| PfRH5 (reticulocyte-binding protein homolog 5): v3.0 (four Asn to Gln) (protein) parent chain: MIRIKKKLILTIIYIHLFILNRLSFENAIKKTKNQENNLTLLPIKSTEEEKDDIKNGKDIKKEIDNDKENIKTNNAKDHSTYIKSYLNTNVNDGLKYLFIPSHNSFIKKYSVFNQINDGMLLNEKNDVKNNEDYKNVDYKNVNFLQYHFKELSNYNIANSIDILQEKEGHLDFVIIPHYTFLDYYKHLSYNSIYHKSSTYGKCIAVDAFIKKINETYDKVKSKCNDIKNDLIATIKKLEHPYDINNKNDDSYRYDISEEIDDKSEETDDETEEVEDSIQDTDSNHTPSNKKKNDLMNRTFKKMMDEYNTKKKKLIKCIKNHENDFNKICMDMKNYGTNLFEQLSCYNNNFCNTNGIRYHYDEYIHKLILSVKSKNLNKDLSDMTNILQQSELLLTNLNKKMGSYIYIDTIKFIHKEMKHIFNRIEYHTKIINDKTKIIQDKIKLNIWRTFQKDELLKRILDMSNEYSLFITSDHLRQMLYNTFYSKEKHLNNIFHHLIYVLQMKFNDVPIKMEYFQTYKKNKPLTQ | – | increases, 535 vs 40 | increases, 8.4 vs >10 | – |
| PfRH5 (reticulocyte-binding protein homolog 5): v4.0 (N38Q and N214Q) (protein) parent chain: MIRIKKKLILTIIYIHLFILNRLSFENAIKKTKNQENNLTLLPIKSTEEEKDDIKNGKDIKKEIDNDKENIKTNNAKDHSTYIKSYLNTNVNDGLKYLFIPSHNSFIKKYSVFNQINDGMLLNEKNDVKNNEDYKNVDYKNVNFLQYHFKELSNYNIANSIDILQEKEGHLDFVIIPHYTFLDYYKHLSYNSIYHKSSTYGKCIAVDAFIKKINETYDKVKSKCNDIKNDLIATIKKLEHPYDINNKNDDSYRYDISEEIDDKSEETDDETEEVEDSIQDTDSNHTPSNKKKNDLMNRTFKKMMDEYNTKKKKLIKCIKNHENDFNKICMDMKNYGTNLFEQLSCYNNNFCNTNGIRYHYDEYIHKLILSVKSKNLNKDLSDMTNILQQSELLLTNLNKKMGSYIYIDTIKFIHKEMKHIFNRIEYHTKIINDKTKIIQDKIKLNIWRTFQKDELLKRILDMSNEYSLFITSDHLRQMLYNTFYSKEKHLNNIFHHLIYVLQMKFNDVPIKMEYFQTYKKNKPLTQ | – | increases, 116 vs 40 | no change, >10 vs >10 | – |
| PfRH5 (reticulocyte-binding protein homolog 5): v2.0 (four Thr to Ala) (protein) parent chain: MIRIKKKLILTIIYIHLFILNRLSFENAIKKTKNQENNLTLLPIKSTEEEKDDIKNGKDIKKEIDNDKENIKTNNAKDHSTYIKSYLNTNVNDGLKYLFIPSHNSFIKKYSVFNQINDGMLLNEKNDVKNNEDYKNVDYKNVNFLQYHFKELSNYNIANSIDILQEKEGHLDFVIIPHYTFLDYYKHLSYNSIYHKSSTYGKCIAVDAFIKKINETYDKVKSKCNDIKNDLIATIKKLEHPYDINNKNDDSYRYDISEEIDDKSEETDDETEEVEDSIQDTDSNHTPSNKKKNDLMNRTFKKMMDEYNTKKKKLIKCIKNHENDFNKICMDMKNYGTNLFEQLSCYNNNFCNTNGIRYHYDEYIHKLILSVKSKNLNKDLSDMTNILQQSELLLTNLNKKMGSYIYIDTIKFIHKEMKHIFNRIEYHTKIINDKTKIIQDKIKLNIWRTFQKDELLKRILDMSNEYSLFITSDHLRQMLYNTFYSKEKHLNNIFHHLIYVLQMKFNDVPIKMEYFQTYKKNKPLTQ | – | increases, 278 vs 40 | increases, 4 vs >10 | no change, median EC50 of 129 μg/mL (95% CI 80.7–186.7 μg/mL) anti-PfRH5 IgG |
